# B1: CsGT45 (Crocus sativus) (protein)
# chain: MEQHQPNILVVTYPAQGHINPALHLAKHLAADTKGLLITFSTAISAHRKMFPESTEPDQEVEDGPITYIPFSDGYDDGFQRDKHDGKQFRSRFKTVGSNTLSAIIQNLEHRGRKVSCVIYTFFVSWAADVARQHAIPSVQYWIQPATVFAIYYHYFHGYESVVAAHSHDPSYPINLPGLSPVQVRDLPSFLTIKPDDPYAVVLSMIRDSFEGLDREETKTKVLVNTFGQLEADAILAVDKMDIIPVGPILPCKGGVSRGDLLKEDEKGYMEWLDSKPENSVVYVSLESLAVLKKQQKFLILKGLKDSGRPYLWVVRRDSGLEGVELGDWDGDGDGDNGMVVGWCSQVSVLSHPSVGCFVTHCGWNSTMESLASGVPTIGVPQWSDQPTCAALAEKDWGIGVRSEVNGDGILEGGELKRCLDLVLGDGERGVEIRRKVEFWKDKATEAISFGGSSDKNLRTFVDQITGYDPNVSSVGFWKDKAIHRQHCEESESASPS
# What was measured:
# Assay type in all cases: biochemical, Crocus sativus
# [1] = substrate: O=c1c(O)c(-c2ccc(O)cc2)oc2cc(O)cc(O)c12; experiment: HPLC of glucoside formed, Lineweaver-Burk; conditions: 7-O-glucoside formation, 2.5 mM UDP-glucose, 50 mM Tris-HCl pH 7.5, 14 mM 2-mercaptoethanol, 30°C
# Excerpt: (§1) HPLC of glucoside formed, Lineweaver-Burk on CsGT45
# [2] = substrate: O=c1c(O)c(-c2ccc(O)c(O)c2)oc2cc(O)cc(O)c12; experiment: HPLC of glucoside formed, Lineweaver-Burk; conditions: 7-O-glucoside formation (preferred position), 2.5 mM UDP-glucose, 50 mM Tris-HCl pH 7.5, 14 mM 2-mercaptoethanol, 30°C
# Excerpt: as §1
# HPLC of glucoside formed = substrate: O=c1ccn([C@@H]2O[C@H](CO[P@@](=O)(O)O[P@@](=O)(O)O[C@H]3O[C@H](CO)[C@@H](O)[C@H](O)[C@H]3O)[C@@H](O)[C@H]2O)c(=O)[nH]1; experiment: HPLC of glucoside formed; conditions: constant kaempferol as acceptor (level not given)
protein,measurement,setting,value
B1,Km,[1],15.6 ± 1.2 µM
same,Km,[2],21.50 ± 2.3 µM
same,Km,HPLC of glucoside formed,600 µM
